Laboratory results from patent US7361735B2, “LITAF binding site peptides and methods of using the same” (Trustees of Boston University, priority 2003, dated 2008).

Tested on: wtTNFβ, TNF-α promoter from −991 to 1
Assay: Luciferase reporter assay, wild-type TNF-α promoter, WTK-1
Assay type: cell-based
Details: WTK-1 cells; normalized to β-gal; LITAF overexpressed alone without LPS stimulation
Description: FIG. 10 is a graphical representation of the analysis of LITAF function in luciferase reporter constructs. The series of TNF-α promoter DNA fragments were subcloned into the pGL3 basic vector (Pharmacia), a promoterless and enhancerless luciferase reporter gene. One construct, named wtTNFβ, contained TNF-α promoter from −991 to 1. Another one, mtTNFβ1, was a mutant inserted with the promoter from −991 to 1, but lacking the LITAF binding site. WTK-1 cells (grown to 85% confluence) in a 6-well plate at 1.2×10^5 cells/well were co-transfected with 1 μg DNAs including pCMV-LITAF recombinant vector, pVMVβ-gal and pGL3 basic as control by Fugene 6 (Roche Molecular Biochemicals) for 3 hrs, washed with PBS twice, then individually stimulated with LPS or Chariot/peptide complex of 100 ng/ml peptide B (peptide fragment of LITAF representing aa 152-228) or HA as control for 3 hrs, washed with PBS, incubated at 37° C., 5% CO2, o/n. The β-galactosidase gene was included in all transfections. The cells were harvested and lysed approximately 12 hrs after transfection. The promoter activity from each lysate sample was measured using the luciferase reporter assay system (Promega) and normalized to β-gal expression in the same sample, as described in the methods section below.
The activation of TNF-α gene expression by LITAF was investigated. […]

B1: exogenous LITAF: full-length human LITAF (SEQ ID NO. 1) overexpressed from the pCMV-LITAF recombinant vector (protein, listed as Homo sapiens)
chain: MSVPGPYQAATGPSSAPSAPPSYEETVAVNSYYPTPPAPMPGPTTGLVTGPDGKGMNPPSYYTQPAPIPNNNPITVQTVYVQHPITFLDRPIQMCCPSCNKMIVSQLSYNAGALTWLSCGSLCLLGVHSGLLLHPLLRGCPAGRGPLLSQLQSSPGHLQAFVGLSQTWREPGAAGSPFHLSSSFTPGGGSALVVSPLQGAHLHVFFWGEYVAKLTNLQTPEIAAWSRA
- TNF-α promoter activity (luciferase), wild-type promoter/reporter plasmid: 2.5 fold
